The values below come from publication PMC6855462.

This experiment has as its target FL H1#5070 (full-length HA of H1 A/Brisbane/59/2007, C-terminally modified with a sortase A LPXTG recognition sequence, biotinylated HA probe) (influenza A virus H1 A/Brisbane/59/2007). As to the kind of experiment: SEC-MALS; Superdex 200 10-300 GL column, after sortase-mediated biotinylation; trimeric fractions collected; stored in 20mM Tris, 150mM NaCl, pH7.8.

In the case of “FL H1#5070 (full-length HA of H1 A/Brisbane/59/2007, C-terminally modified with a sortase A LPXTG recognition sequence, biotinylated HA probe) (natural protein)”, the stoichiometry N was 3.
